Results from the supplement of paper PMC10724198.
± gives the standard deviation of the averaged measurements.

System: Saccharomyces cerevisiae
Assay: protein stability index of tFT-peptide fusion (C-terminal peptide) (PSI (0-1 scale)); higher = more stable (slower turnover)
Conditions: genetic background: wild type; temperature: 30 C
Description: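 Multiplexed protein stability (MPS) profiling in S. cerevisiae. Random 12-aa peptides (tFT-X12 library) are fused to the C-terminus of a sfGFP-mCherry tandem fluorescent timer, after mCherry and a GGGS linker. Cells are FACS-sorted into 8 mCherry/sfGFP bins and deep-sequenced. The protein stability index (PSI) is the read-weighted bin average, scaled from 0 (unstable) to 1 (stable). Only peptides with >10 reads are reported; cells were grown at 30 °C in SC-His with glucose.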
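Also: PSI is a weighted mean of sequencing reads over stability bins, variants kept only with over 10 reads, mCherry proximal and sfGFP distal, peptide attached via GGGS linker.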

Sequence	protein stability index
GPGAVTALGYGR	0.668 ± 0.015
GPGLSPPYPSPA	0.704 ± 0.029
GPGSFAPLPPRS	0.684 ± 0.033
GPLPYISLSFSP	0.7304 ± 0.0028
GPPPRSPAFRSL	0.695 ± 0.092
GPPPRYLPAFPA	0.7057 ± 0.0042
GPPSRPPRRTAP	0.707 ± 0.14
GPRDPSCLLPPL	0.653 ± 0.013
GPRRVAVAGETS	0.715 ± 0.037
GPTPHPVPTTCS	0.69 ± 0.016
GPVQWSLLGGSW	0.65 ± 0.012
GPVYPGSRPAFT	0.708 ± 0.092
GPWGGSGGGGVG	0.628 ± 0.041
GQMDGGMGGKVI	0.582 ± 0.062
GQNGFVDGGCVL	0.677 ± 0.0081
GQQETIGLRAHI	0.681 ± 0.025
GQQLSLRGVVHW	0.844 ± 0.2
GQSQSGIFRTIF	0.72 ± 0.024
GQSVYRRWGCLK	0.68 ± 0.01
GQVATAGDIRVR	0.69065 ± 0.00026
GQYEPEWKRLYC	0.64 ± 0.011
GRADWERGMGLV	0.664 ± 0.021
GRAGEKRGGRRL	0.66 ± 0.013
GRANLAPVPPPR	0.685 ± 0.013
GRASAGVLLCDG	0.659 ± 0.028

Sequence	protein stability index
GRCQSPRASPSG	0.584 ± 0.013
GRDTVARSEGDR	0.712 ± 0.037
GRERASHRGPRN	0.648 ± 0.0066
GRFGGLLRKVLG	0.678 ± 0.15
GRFGIGLYLCFL	0.597 ± 0.094
GRGGAGFRGGIE	0.6707 ± 0.0044
GRGRVGGGGVAV	0.682 ± 0.042
GRGTGGKGRRGS	0.693 ± 0.015
GRGVFPRRPYWV	0.724 ± 0.0086
GRGVGWRACGVV	0.685 ± 0.018
GRIAGGGGGWRW	0.648 ± 0.064
GRILGEGWVCVV	0.663 ± 0.087
GRKAEVRVLHFR	0.6447 ± 0.0055
GRKKLQKKIEEQ	0.6783 ± 0.0032
GRLGRHFSVKFL	0.6584 ± 0.0052
GRLGRMWRCDPR	0.658 ± 0.032
GRLWVGGSVGGV	0.669 ± 0.012
GRPRERWGVGVV	0.6865 ± 0.0023
GRQLSTSRLRSS	0.674 ± 0.025
GRRAWWQQPDDS	0.774 ± 0.099
GRRDARTEDVRE	0.688 ± 0.0049
GRRFWFSNHYNC	0.628 ± 0.091
GRRKKKNRDKMK	0.6872 ± 0.004
GRRLSDTSIFSS	0.679 ± 0.087
GRRRCGGGGEVC	0.66 ± 0.064

Sequence	protein stability index
GRRRVSTAPRTT	0.739 ± 0.056
GRSFRQWRDSGS	0.718 ± 0.066
GRSGACGWVGFG	0.7238 ± 0.0013
GRSGGEGGGEEE	0.681 ± 0.029
GRSHIQPCQDII	0.75 ± 0.078
GRSIKGLLYQSL	0.681 ± 0.025
GRSKKGTISMNS	0.67 ± 0.0077
GRTAEKGHPPRG	0.7 ± 0.073
GRTGRSVGTGVR	0.662 ± 0.025
GRTSTVRSLVFT	0.666 ± 0.026
GRTYWDCYFPRP	0.778 ± 0.061
GRVRGRGEGPVA	0.675 ± 0.049
GRWFGGRGVGEG	0.635 ± 0.013
GRWGVMKGEEDV	0.737 ± 0.032
GRWSDSSVVTLG	0.679 ± 0.018
GRYDARNYIRGK	0.745 ± 0.14
GRYGPTIPRGEP	0.696 ± 0.017
GSAGGGLLCGCP	0.657 ± 0.008
GSAVLFEFTLKM	0.651 ± 0.053
GSDIIGSRDGWL	0.67 ± 0.039
GSFGFGVTVVFW	0.5563 ± 0.0021
GSGAFSLVSSYF	0.656 ± 0.017
GSGALGAGRASR	0.723 ± 0.017
GSGRVVGSWSVL	0.661 ± 0.045
GSGVFEASAWGA	0.679 ± 0.0069

Sequence	protein stability index
GSGVSDWRCFEG	0.627 ± 0.071
GSGVVVEGFLPD	0.65 ± 0.021
GSGWRLLLGLVR	0.5731 ± 0.0022
GSIWVVGGGQGV	0.731 ± 0.048
GSLWGVFFRGLL	0.647 ± 0.037
GSMWCLTPSAGL	0.7 ± 0.034
GSQCPVLEQQRD	0.655 ± 0.018
GSRALYCIVPRF	0.661 ± 0.053
GSRVEVGLGVRC	0.712 ± 0.027
GSSAPSYTIGPE	0.682 ± 0.017
GSSAVGGGGVWW	0.819 ± 0.1
GSSVGVAGLRGR	0.656 ± 0.029
GSSVSSVWGGVG	0.629 ± 0.022
GSTSWAWITLPH	0.747 ± 0.0077
GSVGSFIVVVHF	0.552 ± 0.013
GSVMDMTRGGVS	0.646 ± 0.097
GSVSLLASLMCS	0.55596 ± 0.00023
GSWGRPAGFSRR	0.651 ± 0.028
GSWGVGLGKVHW	0.752 ± 0.022
GTALLSGGVLVI	0.689 ± 0.11
GTATINQISSPQ	0.673 ± 0.028
GTEFIIDIQIFV	0.547 ± 0.02
GTETFHDASIGI	0.653 ± 0.016
